The record followed here is patent publication US20250145697A1 (WASHINGTON UNIVERSITY, published 2025).

The term EC50 denotes the concentration giving half of the maximal effect. The term EC50 (read off the curve) denotes the concentration needed to bring the measured effect to its halfway point. Broadly, the Kd is the free concentration of one partner at which half of the binding sites on the other are occupied at equilibrium, for simple one-to-one binding. As a reminder, the koff is a measure of how fast the partners let go of each other. The term kon denotes the second-order rate constant of association.

The target in test [1] is T1, ApoE4 amino acids 1-164, expressed on yeast (human, UniProt P02649 19-182).
T1 construct: with myc tag, on yeast cells; range counts on the mature protein; also called up to helix 4; not shown: myc tag and yeast surface-display partner
T1 chain: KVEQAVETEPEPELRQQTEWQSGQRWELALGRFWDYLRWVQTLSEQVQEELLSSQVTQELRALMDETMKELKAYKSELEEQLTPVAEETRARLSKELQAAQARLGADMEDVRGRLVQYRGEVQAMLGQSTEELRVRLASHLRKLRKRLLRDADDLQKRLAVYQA
Kind of test: yeast display of myc-tagged ApoE4 fragment, antibody staining. Here is the method:
(§1) Epitope binding of various anti-ApoE antibodies was evaluated multiple ways. Different sequences of human ApoE were expressed on the surface of yeast by yeast display using different plasmids. Different anti-ApoE antibodies were then assessed to determine binding to the different ApoE sequences by immunofluorescence of the yeast cell surface (Table 4). Because none of the anti-ApoE antibodies tested here recognize murine ApoE, the epitope was further narrowed down by comparison of the murine and human ApoE sequences as shown in Tables 4 and 5. DNA constructs containing different regions of ApoE4 with myc tag were transformed into yeast cells. Yeast cells were incubated with HJ15x to detect binding or anti-myc antibody to detect expression.

The target in test [2] is T2, ApoE4 amino acids 1-210, expressed on yeast (human, UniProt P02649 19-228).
T2 construct: with myc tag, on yeast cells; range counts on the mature protein; also called N terminal domain; not shown: myc tag and yeast surface-display partner
T2 chain: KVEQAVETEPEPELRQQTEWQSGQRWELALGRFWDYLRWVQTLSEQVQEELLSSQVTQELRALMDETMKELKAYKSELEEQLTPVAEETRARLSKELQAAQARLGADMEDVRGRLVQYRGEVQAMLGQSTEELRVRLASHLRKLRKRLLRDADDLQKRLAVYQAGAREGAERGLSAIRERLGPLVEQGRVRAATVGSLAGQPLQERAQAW
The description is as above. How it is done:
as §1

The target in test [3] is T3, ApoE4 amino acids 24-164, expressed on yeast (human, UniProt P02649 42-182).
T3 construct: with myc tag, on yeast cells; range counts on the mature protein; also called helix1 + 2 + 3 + 4
T3 chain: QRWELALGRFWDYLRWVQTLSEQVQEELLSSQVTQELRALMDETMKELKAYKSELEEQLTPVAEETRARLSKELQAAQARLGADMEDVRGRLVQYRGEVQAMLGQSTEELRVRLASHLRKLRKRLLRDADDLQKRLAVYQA
The test is described as above. How it is done: as §1

In test [4] the target is T4, ApoE4 amino acids 54-164, expressed on yeast (human, UniProt P02649 72-182).
T4 construct: with myc tag, on yeast cells; expression in yeast printed as Low; range counts on the mature protein; also called helix2 + 3 + 4
T4 chain: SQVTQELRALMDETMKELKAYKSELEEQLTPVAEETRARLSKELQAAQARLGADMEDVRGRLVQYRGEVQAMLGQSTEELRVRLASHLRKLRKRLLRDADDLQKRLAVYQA
The description is as above. Here is the method: as §1

For test [5], the target named is T5, recombinant alipidated human ApoE4 (human, UniProt P02649 19-317).
T5 construct: mature; full length recombinant protein made in E. coli or bought; biotinylated for SPR; position 112 is counted on the mature protein, not on the precursor entry; also called recApoE; non-lipidated ApoE4
Kind of test: direct ELISA on coated recombinant alipidated ApoE (0.5 ug/ml). The method, boiled down: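 Plates coated overnight with full-length recombinant alipidated ApoE (0.5 μg/ml), from E. coli or a commercial source, were washed, blocked and incubated with anti-ApoE antibody. Binding was detected with goat anti-mouse IgG-HRP to generate dose-response curves.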
For orientation: An ELISA detects its analyte on a solid surface through an enzyme-linked reagent.
Target sequence in this assay (P02649 19-317 C130R): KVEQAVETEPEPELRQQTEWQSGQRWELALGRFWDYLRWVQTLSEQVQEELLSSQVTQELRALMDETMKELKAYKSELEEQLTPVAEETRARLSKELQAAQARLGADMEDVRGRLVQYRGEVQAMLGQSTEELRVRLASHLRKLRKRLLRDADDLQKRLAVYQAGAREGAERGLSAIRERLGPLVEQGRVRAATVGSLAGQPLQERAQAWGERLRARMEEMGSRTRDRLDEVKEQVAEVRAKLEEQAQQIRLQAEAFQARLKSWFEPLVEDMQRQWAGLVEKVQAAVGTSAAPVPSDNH

For test [6], the target named is T5, recombinant alipidated human ApoE4. Kind of test: ELISA, plate coated with 0.5 ug/ml recombinant apoE4, HRP goat anti-mouse detection, OD450. How it is done: ELISA plates were coated with 0.5 μg/ml of recombinant apoE2 (square), apoE3 (open circle), or apoE4 (closed circle). Then different concentrations of (A) HJ151, (B) HJ153, (C) HJ154, or (D) HJ156 were loaded on the plates. Horse-radish peroxidase labeled goat anti-mouse secondary antibodies were used to detect binding. […] HJ151 is specific for ApoE4 and HJ156 binds only ApoE3 and ApoE4. FIG. 5E-H are graphs depicting surface plasmon resonance profiles for various antibodies. Anti-ApoE antibodies were serially diluted 3-fold (starting at 100 nM for HJ153 (E), and 1000 nM for HJ151 (F), and […] (G)) for detection of binding to biotinylated-recombinant apoE4 captured on a streptavidin chip. Samples were injected at a flow rate of 30 μl/minute. (H) Apparent KD values of HJ151, HJ153 and HJ156 were calculated based on the SPR experiment.
ELISA plates were coated with 0.5 μg/ml of recombinant apoE2, apoE3, or apoE4. Then different concentrations of HJ151 (FIG. 5A), HJ153 (FIG. 5B), HJ154 (FIG. 5C), or HJ156 (FIG. 5D) were loaded on the plates. Horse-radish peroxidase labeled goat anti-mouse secondary antibodies were used to detect binding. […] HJ151 is specific for ApoE4 and HJ156 binds only ApoE3 and ApoE4. Surface plasmon resonance profiles for various antibodies was also performed.

Test [7] shares this target. Kind of test: SPR (Biacore T200), biotinylated ApoE4 captured on anti-biotin mAb chip, antibody injected, 1:1 fit. The method, boiled down:
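Biotinylated recombinant alipidated human ApoE4 (E. coli-expressed or commercial) captured on immobilized anti-biotin mAb; antibody serial dilutions injected at 30 μl/min, e.g. 3-min association, 10-min dissociation. Responses reference-subtracted against irrelevant-IgG flow cell; kinetics from 1:1 Langmuir simultaneous fit of Kon and Koff.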
Target sequence in this assay (P02649 19-317 C130R): as above
On the technique in general: SPR reads the build-up and loss of mass on a sensor chip optically.

B1: HJ151 (antibody, V domains shown)
VH: QVQLQQSGAELVRPGASVTLSCKASGYTFTDYEMHWVKQTPVHGLEWIGVIDPEKGGTAYNQKFKGKAILTADKSSSTAYMDLRSLTSEDSAVYYCLKDSWGQGTTLTVSS
VL: DVLMTQTPLSLPVSLGDQASISCRSSQTIVHSDGNTYLEWYLQKPGQSPKLLIYKVSNRFSGVPDRFSGSGSGTYFTLKISRVEAEDLGVYYCFQGSHVPCTFGGGTKLEIKR
notes: murine monoclonal antibody from hybridoma; also called HJ151B (biotinylated)
For B1, the binding result in test [1], in test [2], in test [3] and in test [4] was “binds” each time. For the same molecule, in test [5], the EC50 turned out to be 0.44 nM. Besides, the “EC50 (read off the curve)” value in test [6] was roughly 0.5 nM. Moreover, the Kd in test [7] came out at 60.2 nM. For the same molecule, the koff in test [7] was found to be 0.00119 s⁻¹. In test [7], the kon was 19700 M⁻¹ s⁻¹.

B2: HJ156 (antibody, V domains shown)
VH: QVQLQQSGPELVKPGASVKISCKASGYIFTDYYINWVKRRPGQGLEWIGWIFPGSGVSYYNEQFKGKATLTVDKPSNTAYIFLSRLTSEDSAVYFCARYYSSSPFAYWGQGTLVTVSA
VL: DVLMTQTPLSLPVSLGDQASISCRSSQNIIHSNGNTYLEWFLQRPGQSPELLIYKVSNRFSGVPDRFSGSGSGTDFTLKISRVEAEDLGVYYCFQGSHVPYTFGGGTKLEIKR
notes: murine monoclonal antibody from hybridoma; also called HJ156B (biotinylated)
Turning to B2, the binding result in test [1], in test [2], in test [3] and in test [4] was “binds” each time. Besides, the EC50 in test [5] came out at 0.62 nM. The “EC50 (read off the curve)” value in test [6] is roughly 1 nM. In addition, the Kd in test [7] is 216 nM. The koff in test [7] amounted to 0.00449 s⁻¹. For the same molecule, the kon in test [7] amounted to 20700 M⁻¹ s⁻¹.

B3: HJ154 (antibody, V domains shown)
VH: QVQLQQPGTEFVMSGASVMLSCKASGYIFTNYWLHWVKQRPGHGLEWIGEIDPSDSYSICNDNFKGKSTLTVDKSSSTAYMQLSSLTSEDSAVYYCAGSLGRVGLAYWGQGTLVTVST
VL: QIVLTQSPAIMSASPGEKVTMSCSASSSVSNMYWYQQKPGSSPKSWIYRTSNLASGVPARFSGSGSGTSYSLTISNMEAEDAATYYCQHYQNYPLTFGAGTKLELKR
notes: murine monoclonal antibody from hybridoma; also called HJ154B (biotinylated)
On to B3, for which the binding result in test [1], in test [2], in test [3] and in test [4] was “binds” each time. Moreover, in test [5], the EC50 was 0.26 nM. In test [6], the “EC50 (read off the curve)” value is roughly 0.3 nM. Moreover, the Kd in test [7] was 0.675 nM. Moreover, the koff in test [7] is 0.000348 s⁻¹. In addition, the kon in test [7] was determined as 516000 M⁻¹ s⁻¹.
